Experimental data taken from patent US20150246136A1 (Bayer, published 2015).

biological target: Mesothelin (SwissProt reference Q13421-3) (Homo sapiens, UniProt Q13421 37-622); assay: cell-based or functional assay

Binder | IC50 (nM), HT29 meso+ cells, MTT proliferation assay [nM]
Example 73, conjugate of anti-mesothelin antibody MF-Ta (antibody, human IgG1, lambda, V domains shown, toxophore-linker on Cys sulfur, sites not given) VH: QVELVQSGAEVKKPGESLKISCKGSGYSFTSYWIGWVRQAPGKGLEWMGIIDPGDSRTRYSPSFQGQVTISADKSISTAYLQWSSLKASDTAMYYCARGQLYGGTYMDGWGQGTLVTVSS VL: DIALTQPASVSGSPGQSITISCTGTSSDIGGYNSVSWYQQHPGKAPKLMIYGVNNRPSGVSNRFSGSKSGNTASLTISGLQAEDEADYYCSSYDIESATPVFGGGTKLTVLG | 25
Example 74, conjugate of anti-mesothelin antibody MF-Ta (antibody, human IgG1, lambda, V domains shown, toxophore-linker on Cys sulfur, sites not given) VH: QVELVQSGAEVKKPGESLKISCKGSGYSFTSYWIGWVRQAPGKGLEWMGIIDPGDSRTRYSPSFQGQVTISADKSISTAYLQWSSLKASDTAMYYCARGQLYGGTYMDGWGQGTLVTVSS VL: DIALTQPASVSGSPGQSITISCTGTSSDIGGYNSVSWYQQHPGKAPKLMIYGVNNRPSGVSNRFSGSKSGNTASLTISGLQAEDEADYYCSSYDIESATPVFGGGTKLTVLG | 9
Example 75, conjugate of anti-mesothelin antibody MF-Ta (antibody, human IgG1, lambda, V domains shown, toxophore-linker on Lys NH, sites not given) VH: QVELVQSGAEVKKPGESLKISCKGSGYSFTSYWIGWVRQAPGKGLEWMGIIDPGDSRTRYSPSFQGQVTISADKSISTAYLQWSSLKASDTAMYYCARGQLYGGTYMDGWGQGTLVTVSS VL: DIALTQPASVSGSPGQSITISCTGTSSDIGGYNSVSWYQQHPGKAPKLMIYGVNNRPSGVSNRFSGSKSGNTASLTISGLQAEDEADYYCSSYDIESATPVFGGGTKLTVLG | 0.2
Example 76, conjugate of anti-mesothelin antibody MF-Ta (antibody, human IgG1, lambda, V domains shown, toxophore-linker on Cys sulfur, sites not given) VH: QVELVQSGAEVKKPGESLKISCKGSGYSFTSYWIGWVRQAPGKGLEWMGIIDPGDSRTRYSPSFQGQVTISADKSISTAYLQWSSLKASDTAMYYCARGQLYGGTYMDGWGQGTLVTVSS VL: DIALTQPASVSGSPGQSITISCTGTSSDIGGYNSVSWYQQHPGKAPKLMIYGVNNRPSGVSNRFSGSKSGNTASLTISGLQAEDEADYYCSSYDIESATPVFGGGTKLTVLG | 0.35
Example 77, conjugate of anti-mesothelin antibody MF-Ta (antibody, human IgG1, lambda, V domains shown, toxophore-linker on Cys sulfur, sites not given) VH: QVELVQSGAEVKKPGESLKISCKGSGYSFTSYWIGWVRQAPGKGLEWMGIIDPGDSRTRYSPSFQGQVTISADKSISTAYLQWSSLKASDTAMYYCARGQLYGGTYMDGWGQGTLVTVSS VL: DIALTQPASVSGSPGQSITISCTGTSSDIGGYNSVSWYQQHPGKAPKLMIYGVNNRPSGVSNRFSGSKSGNTASLTISGLQAEDEADYYCSSYDIESATPVFGGGTKLTVLG | 0.8
Example 78, conjugate of anti-mesothelin antibody MF-Ta (antibody, human IgG1, lambda, V domains shown, toxophore-linker on Cys sulfur, sites not given) VH: QVELVQSGAEVKKPGESLKISCKGSGYSFTSYWIGWVRQAPGKGLEWMGIIDPGDSRTRYSPSFQGQVTISADKSISTAYLQWSSLKASDTAMYYCARGQLYGGTYMDGWGQGTLVTVSS VL: DIALTQPASVSGSPGQSITISCTGTSSDIGGYNSVSWYQQHPGKAPKLMIYGVNNRPSGVSNRFSGSKSGNTASLTISGLQAEDEADYYCSSYDIESATPVFGGGTKLTVLG | 1.1
Example 79, conjugate of anti-mesothelin antibody MF-Ta (antibody, human IgG1, lambda, V domains shown, toxophore-linker on Cys sulfur, sites not given) VH: QVELVQSGAEVKKPGESLKISCKGSGYSFTSYWIGWVRQAPGKGLEWMGIIDPGDSRTRYSPSFQGQVTISADKSISTAYLQWSSLKASDTAMYYCARGQLYGGTYMDGWGQGTLVTVSS VL: DIALTQPASVSGSPGQSITISCTGTSSDIGGYNSVSWYQQHPGKAPKLMIYGVNNRPSGVSNRFSGSKSGNTASLTISGLQAEDEADYYCSSYDIESATPVFGGGTKLTVLG | 0.5
Example 80, conjugate of anti-mesothelin antibody MF-Ta (antibody, human IgG1, lambda, V domains shown, toxophore-linker on Cys sulfur, sites not given) VH: QVELVQSGAEVKKPGESLKISCKGSGYSFTSYWIGWVRQAPGKGLEWMGIIDPGDSRTRYSPSFQGQVTISADKSISTAYLQWSSLKASDTAMYYCARGQLYGGTYMDGWGQGTLVTVSS VL: DIALTQPASVSGSPGQSITISCTGTSSDIGGYNSVSWYQQHPGKAPKLMIYGVNNRPSGVSNRFSGSKSGNTASLTISGLQAEDEADYYCSSYDIESATPVFGGGTKLTVLG | 4.4
Example 81, conjugate of anti-mesothelin antibody MF-Ta (antibody, human IgG1, lambda, V domains shown, toxophore-linker on Cys sulfur, sites not given) VH: QVELVQSGAEVKKPGESLKISCKGSGYSFTSYWIGWVRQAPGKGLEWMGIIDPGDSRTRYSPSFQGQVTISADKSISTAYLQWSSLKASDTAMYYCARGQLYGGTYMDGWGQGTLVTVSS VL: DIALTQPASVSGSPGQSITISCTGTSSDIGGYNSVSWYQQHPGKAPKLMIYGVNNRPSGVSNRFSGSKSGNTASLTISGLQAEDEADYYCSSYDIESATPVFGGGTKLTVLG | 0.02
Example 82, conjugate of anti-mesothelin antibody MF-Ta (antibody, human IgG1, lambda, V domains shown, toxophore-linker on Cys sulfur, sites not given) VH: QVELVQSGAEVKKPGESLKISCKGSGYSFTSYWIGWVRQAPGKGLEWMGIIDPGDSRTRYSPSFQGQVTISADKSISTAYLQWSSLKASDTAMYYCARGQLYGGTYMDGWGQGTLVTVSS VL: DIALTQPASVSGSPGQSITISCTGTSSDIGGYNSVSWYQQHPGKAPKLMIYGVNNRPSGVSNRFSGSKSGNTASLTISGLQAEDEADYYCSSYDIESATPVFGGGTKLTVLG | 24
Example 83, conjugate of anti-mesothelin antibody MF-Ta (antibody, human IgG1, lambda, V domains shown, toxophore-linker on Cys sulfur, sites not given) VH: QVELVQSGAEVKKPGESLKISCKGSGYSFTSYWIGWVRQAPGKGLEWMGIIDPGDSRTRYSPSFQGQVTISADKSISTAYLQWSSLKASDTAMYYCARGQLYGGTYMDGWGQGTLVTVSS VL: DIALTQPASVSGSPGQSITISCTGTSSDIGGYNSVSWYQQHPGKAPKLMIYGVNNRPSGVSNRFSGSKSGNTASLTISGLQAEDEADYYCSSYDIESATPVFGGGTKLTVLG | 0.3
Example 84, conjugate of anti-mesothelin antibody MF-Ta (antibody, human IgG1, lambda, V domains shown, toxophore-linker on Lys NH, sites not given) VH: QVELVQSGAEVKKPGESLKISCKGSGYSFTSYWIGWVRQAPGKGLEWMGIIDPGDSRTRYSPSFQGQVTISADKSISTAYLQWSSLKASDTAMYYCARGQLYGGTYMDGWGQGTLVTVSS VL: DIALTQPASVSGSPGQSITISCTGTSSDIGGYNSVSWYQQHPGKAPKLMIYGVNNRPSGVSNRFSGSKSGNTASLTISGLQAEDEADYYCSSYDIESATPVFGGGTKLTVLG | 6
Example 85, conjugate of anti-mesothelin antibody MF-Ta (antibody, human IgG1, lambda, V domains shown, toxophore-linker on Cys sulfur, sites not given) VH: QVELVQSGAEVKKPGESLKISCKGSGYSFTSYWIGWVRQAPGKGLEWMGIIDPGDSRTRYSPSFQGQVTISADKSISTAYLQWSSLKASDTAMYYCARGQLYGGTYMDGWGQGTLVTVSS VL: DIALTQPASVSGSPGQSITISCTGTSSDIGGYNSVSWYQQHPGKAPKLMIYGVNNRPSGVSNRFSGSKSGNTASLTISGLQAEDEADYYCSSYDIESATPVFGGGTKLTVLG | 0.2
Example 86, conjugate of anti-mesothelin antibody MF-Ta (antibody, human IgG1, lambda, V domains shown, toxophore-linker on Cys sulfur, sites not given) VH: QVELVQSGAEVKKPGESLKISCKGSGYSFTSYWIGWVRQAPGKGLEWMGIIDPGDSRTRYSPSFQGQVTISADKSISTAYLQWSSLKASDTAMYYCARGQLYGGTYMDGWGQGTLVTVSS VL: DIALTQPASVSGSPGQSITISCTGTSSDIGGYNSVSWYQQHPGKAPKLMIYGVNNRPSGVSNRFSGSKSGNTASLTISGLQAEDEADYYCSSYDIESATPVFGGGTKLTVLG | 0.45
Example 87, conjugate of anti-mesothelin antibody MF-Ta (antibody, human IgG1, lambda, V domains shown, toxophore-linker on Lys NH, sites not given) VH: QVELVQSGAEVKKPGESLKISCKGSGYSFTSYWIGWVRQAPGKGLEWMGIIDPGDSRTRYSPSFQGQVTISADKSISTAYLQWSSLKASDTAMYYCARGQLYGGTYMDGWGQGTLVTVSS VL: DIALTQPASVSGSPGQSITISCTGTSSDIGGYNSVSWYQQHPGKAPKLMIYGVNNRPSGVSNRFSGSKSGNTASLTISGLQAEDEADYYCSSYDIESATPVFGGGTKLTVLG | 0.9
Example 88, conjugate of anti-mesothelin antibody MF-Ta (antibody, human IgG1, lambda, V domains shown, toxophore-linker on Cys sulfur, sites not given) VH: QVELVQSGAEVKKPGESLKISCKGSGYSFTSYWIGWVRQAPGKGLEWMGIIDPGDSRTRYSPSFQGQVTISADKSISTAYLQWSSLKASDTAMYYCARGQLYGGTYMDGWGQGTLVTVSS VL: DIALTQPASVSGSPGQSITISCTGTSSDIGGYNSVSWYQQHPGKAPKLMIYGVNNRPSGVSNRFSGSKSGNTASLTISGLQAEDEADYYCSSYDIESATPVFGGGTKLTVLG | 0.01
Example 89, conjugate of anti-mesothelin antibody MF-Ta (antibody, human IgG1, lambda, V domains shown, toxophore-linker on Cys sulfur, sites not given) VH: QVELVQSGAEVKKPGESLKISCKGSGYSFTSYWIGWVRQAPGKGLEWMGIIDPGDSRTRYSPSFQGQVTISADKSISTAYLQWSSLKASDTAMYYCARGQLYGGTYMDGWGQGTLVTVSS VL: DIALTQPASVSGSPGQSITISCTGTSSDIGGYNSVSWYQQHPGKAPKLMIYGVNNRPSGVSNRFSGSKSGNTASLTISGLQAEDEADYYCSSYDIESATPVFGGGTKLTVLG | 0.06
Example 90, conjugate of anti-mesothelin antibody MF-Ta (antibody, human IgG1, lambda, V domains shown, toxophore-linker on Cys sulfur, sites not given) VH: QVELVQSGAEVKKPGESLKISCKGSGYSFTSYWIGWVRQAPGKGLEWMGIIDPGDSRTRYSPSFQGQVTISADKSISTAYLQWSSLKASDTAMYYCARGQLYGGTYMDGWGQGTLVTVSS VL: DIALTQPASVSGSPGQSITISCTGTSSDIGGYNSVSWYQQHPGKAPKLMIYGVNNRPSGVSNRFSGSKSGNTASLTISGLQAEDEADYYCSSYDIESATPVFGGGTKLTVLG | 2.6
Example 91, conjugate of anti-mesothelin antibody MF-Ta (antibody, human IgG1, lambda, V domains shown, toxophore-linker on Cys sulfur, sites not given) VH: QVELVQSGAEVKKPGESLKISCKGSGYSFTSYWIGWVRQAPGKGLEWMGIIDPGDSRTRYSPSFQGQVTISADKSISTAYLQWSSLKASDTAMYYCARGQLYGGTYMDGWGQGTLVTVSS VL: DIALTQPASVSGSPGQSITISCTGTSSDIGGYNSVSWYQQHPGKAPKLMIYGVNNRPSGVSNRFSGSKSGNTASLTISGLQAEDEADYYCSSYDIESATPVFGGGTKLTVLG | 0.35
Example 92, conjugate of anti-mesothelin antibody MF-Ta (antibody, human IgG1, lambda, V domains shown, toxophore-linker on Cys sulfur, sites not given) VH: QVELVQSGAEVKKPGESLKISCKGSGYSFTSYWIGWVRQAPGKGLEWMGIIDPGDSRTRYSPSFQGQVTISADKSISTAYLQWSSLKASDTAMYYCARGQLYGGTYMDGWGQGTLVTVSS VL: DIALTQPASVSGSPGQSITISCTGTSSDIGGYNSVSWYQQHPGKAPKLMIYGVNNRPSGVSNRFSGSKSGNTASLTISGLQAEDEADYYCSSYDIESATPVFGGGTKLTVLG | 38
Example 93, conjugate of anti-mesothelin antibody MF-Ta (antibody, human IgG1, lambda, V domains shown, toxophore-linker on Lys NH, sites not given) VH: QVELVQSGAEVKKPGESLKISCKGSGYSFTSYWIGWVRQAPGKGLEWMGIIDPGDSRTRYSPSFQGQVTISADKSISTAYLQWSSLKASDTAMYYCARGQLYGGTYMDGWGQGTLVTVSS VL: DIALTQPASVSGSPGQSITISCTGTSSDIGGYNSVSWYQQHPGKAPKLMIYGVNNRPSGVSNRFSGSKSGNTASLTISGLQAEDEADYYCSSYDIESATPVFGGGTKLTVLG | 52
